Values joined by “and” are separate entries in the source; they are usually repeats but may differ in a detail not shown here. Equal entries are not always repeated. Values belong to the substance of their own block, whether it stands above or below them.
Columns and labels:
[1] = molecular target: L^d on cells loaded with QL9 peptide (mouse) (UniProt P01887)
[2] = molecular target: recombinant biotinylated L^d immobilized on a support, loaded with QL9 peptide (mouse) (UniProt P01887)
[3] = molecular target: 2C T-cell receptor (on T-cells of 2C TCR transgenic mice) (mouse); experiment: staining of purified CD8+ lymph node cells of 2C mice
[4] = molecular target: 2C T-cell receptor (on T-cells of 2C TCR transgenic mice) (mouse); experiment: flow cytofluorometry of purified 2C TCR transgenic lymph node T-cells
[5] = molecular target: recombinant biotinylated L^d immobilized on avidin-coated sheep red blood cells (mouse); experiment: flow cytofluorometry of L^d-coated SRBC with anti-L^d antibody 30.5.7 (FIG. 8)

Substance: 2C T-cell receptor (on T-cells of 2C TCR transgenic mice)
percent of lymphocytes included in rosettes [1]: 30% and 40%
percent of lymphocytes included in rosettes [2]: 30% and 40%

Substance: monoclonal antibody 1B2 (anti-clonotypic antibody to the 2C T-cell receptor)
percent of cells positive for staining [3]: > 95%
percent of cells positive for staining [4]: 97% and 98%

percent of cells labeled [5]: 99.8%
Substance: monoclonal antibody 30.5.7 (anti-L^d)
